Data set [1] concerns human bronchial epithelial cells.
The test system of data set [2] is wild-type CD1 mice. The data set is described as follows: Biodistribution time course of Cy5.5 labeled R11A, ex-vivo IVIS imaging. Conditions: 5mg/Kg Cy5.5 labeled R11A intravenous, 15-360 minutes, n=3.
Protocol: Mice were euthanized at the end of the circulation period, perfused and fixed as before, and multiple organs harvested and ex-vivo IVIS imaging performed immediately.
Wild-type, 6-week old, female CD1 mice were purchased from Charles Rivers. After at least 48 hours of acclimatization after arriving in the animal colony, mice were weighed and anesthetized with an intraperitoneal injection of a 1:1 cocktail of Ketamine:Xylazine at 1–2μL/gm body weight. […] At the end of circulation time, mice were euthanized using inhalational CO2 as per IACUC-approved protocol, chest cavity opened, right atrium nicked and 3–5ml of 4% formalin injected through the left ventricular apex to perfusion fix the animals. Various organs were harvested, rinsed once in PBS and placed on a petri dish to be imaged using IVIS (Perkin- Elmer – S5 instrument). All mice were imaged using identical instrument settings (stage position, exposure time, binning, F-stop etc.). […] All time-points were tested in at least triplicate (n=3).
Data set [3] has as its system SARS-CoV-2 (strain USA_WA1/2020). The class given is cell-based. Conditions: concentrations of 2, 0.2, and 0.02 μM, human bronchial epithelial cells.
Data set [4] has as its system Rat cardiomyoblast H9C2 cells. Conditions: 10μM peptide, 30 minutes, 37°C, N-terminal Cy5.5, C-terminal amide, FACs, biological triplicates, p<0.001.

The results in this text go back to publication PMC8609903, “Novel Lung Targeting Cell Penetrating Peptides as Vectors for Delivery of Therapeutics” (Research Square, 2021).

In the case of “APWHLSSQYSAT ({Cy5.5}-APWHLSSQYSAT-NH2) [R11A]”, the “uptake at 4°C” value in data set [1] was “very little uptake”. In addition, in data set [2], the fluorescence in kidneys result was “little fluorescence” and the fluorescence in liver result is “decreased over time”.
With `CCC(CC)COC(=O)[C@H](C)N[P@](=O)(OC[C@H]1O[C@@](C#N)(c2ccc3c(N)ncnn23)[C@H](O)[C@@H]1O)Oc1ccccc1` [Remdesivir], the “reduction of SARS-CoV-2 titers compared to virus controls” value in data set [3] is “statistically significant”.
On to “APWHLSAQYSRT ({Cy5.5}-APWHLSAQYSRT-NH2) [S7A]”, for which, in data set [1], the “uptake at 4°C” value is “very little uptake”. Moreover, the “Cy5.5 intensities, fold higher” value in data set [4] is recorded as ~3 fold.
